From US20170159025A1 come the findings set out here.

For experiment [1], the target named is human epidermal growth factor receptor (EGFR) (human) (UniProt P00533). The experiment can be described thus: cell-based or functional assay.
The next experiment addresses EGFRvIII (UniProt P00533). The experiment can be described thus: cell-based or functional assay.

Consider “chimeric antigen receptor 806-28BBZ, scFv(EGFR)-CD28-CD28-CD137-CD3 zeta (from UniProt P01732 138-182; P10747 153-220; Q07011 214-255; P20963 52-164)”, for which, in experiment [1], the Cytotoxicity % (LDH release), BxPC-3 cells, effector to target 1:1 is 49%; the Cytotoxicity % (LDH release), BxPC-3 cells, effector to target 1:3 was found to be 24%; the Cytotoxicity % (LDH release), BxPC-3 cells, effector to target 3:1 was found to be 70%; the Cytotoxicity % (LDH release), CFPAC-1 cells, effector to target 3:1 was 40%. Also, in experiment [1], the Cytotoxicity % (LDH release), PANC-1 cells, effector to target 1:1 worked out at 28%; the Cytotoxicity % (LDH release), PANC-1 cells, effector to target 3:1 turned out to be 65%; the Cytotoxicity % (LDH release), U87-EGFR cells, effector to target 1:1 stood at 49%; the Cytotoxicity % (LDH release), U87-EGFR cells, effector to target 1:3 was 29%. Moreover, in experiment [1], the Cytotoxicity % (LDH release), U87-EGFR cells, effector to target 3:1 came to 98%; the Cytotoxicity % (LDH release), U87 cells, effector to target 1:1 was -14%; the Cytotoxicity % (LDH release), U87 cells, effector to target 1:3 was -25%; the Cytotoxicity % (LDH release), U87 cells, effector to target 3:1 was -2%. In the experiment with EGFRvIII, this substance showed a Cytotoxicity % (LDH release), U87-EGFRvIII cells, effector to target 1:1 of 41%; a Cytotoxicity % (LDH release), U87-EGFRvIII cells, effector to target 3:1 of 81%; a Cytotoxicity against target cells % (LDH release), U87-EGFRvIII cells, effector to target 5:1, 20 h of 85%.

For “chimeric antigen receptor 806-Z, scFv(EGFR)-CD8-CD3 zeta (from UniProt P01732 138-203; P20963 52-164)”, in experiment [1], the Cytotoxicity % (LDH release), BxPC-3 cells, effector to target 1:1 came out at 24%; the Cytotoxicity % (LDH release), BxPC-3 cells, effector to target 1:3 was 14%; the Cytotoxicity % (LDH release), BxPC-3 cells, effector to target 3:1 amounted to 44%; the Cytotoxicity % (LDH release), CFPAC-1 cells, effector to target 1:1 is 35%. In experiment [1], this substance had a Cytotoxicity % (LDH release), CFPAC-1 cells, effector to target 1:3 of 12%; a Cytotoxicity % (LDH release), CFPAC-1 cells, effector to target 3:1 of 43%; a Cytotoxicity % (LDH release), PANC-1 cells, effector to target 1:1 of 34%; a Cytotoxicity % (LDH release), PANC-1 cells, effector to target 1:3 of 18%. In the experiment with EGFRvIII, this substance gave a Cytotoxicity against target cells % (LDH release), U87-EGFRvIII cells, effector to target 5:1, 20 h of 56% and a cytotoxicity against tumor cells U87-EGFRvIII (LDH release) of 55.5%.
